Tests used:
Test in all cases: ELISA; Tie2-Fc coated at 1 ug/mL; signal at 100 ng/mL antibody vs convergence value on the parent
[1] = molecular target: T1, Human Tie2 (1-452)m1-Fc (human, UniProt Q02763 23-452)
T1 construct: range 1-452
Description: (§1) The next day, the immobilized solution was removed, and the plate was washed with a TBS-T solution, and incubated for 60 minutes by the addition of 50 μL of a Blocker™ Casein in TBS (Thermo Fisher Scientific Inc., 37532) to perform blocking. The resultant was washed with a TBS-T solution, and TIE-1-Igγ1-LALA, diluted with 0.05% Tween 20 (Nacalai Tesque Inc., 28353-85)—containing Blocker™ Casein in TBS from 0.03 ng/mL to 100 ng/mL through eight steps, was added thereto in the amount of 20 μL per well. The resultant was incubated at room temperature for 90 minutes and then washed with a TBS-T solution three times, and 20 μL of a biotin-labeled anti-human kappa light chain antibody, which had been diluted to 0.1 μg/mL with 0.05% Tween 20-containing Blocker™ Casein in TBS, was added thereto. The resultant was incubated at room temperature for 60 minutes and then washed with a TBS-T solution three times, and 20 μL of alkaline phosphatase-labeled streptavidin, which had been diluted to 0.1 μg/mL with 0.05% Tween 20-containing Blocker™ Casein in TBS, was added thereto. The resultant was incubated at room temperature for 60 minutes and then washed with a TBS-T solution three times, and 50 μL of Chemiluminescent Ultra Sensitive AP Microwell and/or Membrane Substrate (450 nm), which had been 5-fold diluted with 1 mM MgCl₂-containing 20 mM TBS (pH 9.8) as a substrate, was added thereto. The resultant was incubated at room temperature under light-shielding for 40 minutes, and then luminescent intensity thereof was measured with an EnVision™ multi-label counter. The EC₅₀ value of TIE-1-Igγ1-LALA with respect to the human Tie2 (1-452)-Fc chimeric protein and 23 mutant proteins thereof were calculated. The relative value of luminescent intensity of 100 ng/mL TIE-1-Igγ1-LALA as maximum concentration point with respect to human Tie2 (1-452)-Fc chimeric protein and 23 mutant proteins thereof when the convergence value of the sigmoid curve of TIE-1-Igγ1-LALA binding to the human Tie2 (1-452)-Fc chimeric protein which was taken as 100% was calculated (Table 8 and Table 9). Further, the EC₅₀ value and the convergence value were calculated by Sigmoid-Emax model non-linear regression analysis.

[2] = molecular target: T2, Human Tie2 (1-452)y1-Fc (human, UniProt Q02763 23-452)
T2 construct: range 1-452
T2 sequence (Q02763 other isoform, or with tags, fused parts or gaps limits assumed, form in doubt): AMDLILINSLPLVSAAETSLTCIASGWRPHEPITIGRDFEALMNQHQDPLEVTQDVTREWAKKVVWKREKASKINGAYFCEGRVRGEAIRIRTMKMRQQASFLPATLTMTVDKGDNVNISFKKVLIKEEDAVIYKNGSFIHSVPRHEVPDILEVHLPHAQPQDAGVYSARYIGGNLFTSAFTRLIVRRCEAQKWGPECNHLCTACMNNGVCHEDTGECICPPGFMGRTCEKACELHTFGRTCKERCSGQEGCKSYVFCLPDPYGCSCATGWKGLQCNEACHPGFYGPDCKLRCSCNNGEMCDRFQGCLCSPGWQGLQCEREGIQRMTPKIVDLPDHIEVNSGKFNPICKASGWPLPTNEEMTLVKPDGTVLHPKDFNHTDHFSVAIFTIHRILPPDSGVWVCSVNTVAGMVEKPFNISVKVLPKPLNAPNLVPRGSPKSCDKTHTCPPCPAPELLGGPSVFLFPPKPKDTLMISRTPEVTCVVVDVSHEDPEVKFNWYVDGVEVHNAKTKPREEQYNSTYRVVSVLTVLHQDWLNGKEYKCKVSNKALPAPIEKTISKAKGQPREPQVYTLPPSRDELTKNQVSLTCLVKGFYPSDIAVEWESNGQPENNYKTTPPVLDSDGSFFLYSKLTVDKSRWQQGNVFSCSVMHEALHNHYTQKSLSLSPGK
Description: as §1

[3] = molecular target: T3, Human Tie2 (1-452)c1-Fc (human, UniProt Q02763 23-452)
T3 construct: range 1-452
T3 sequence (Q02763 other isoform, or with tags, fused parts or gaps limits assumed, form in doubt): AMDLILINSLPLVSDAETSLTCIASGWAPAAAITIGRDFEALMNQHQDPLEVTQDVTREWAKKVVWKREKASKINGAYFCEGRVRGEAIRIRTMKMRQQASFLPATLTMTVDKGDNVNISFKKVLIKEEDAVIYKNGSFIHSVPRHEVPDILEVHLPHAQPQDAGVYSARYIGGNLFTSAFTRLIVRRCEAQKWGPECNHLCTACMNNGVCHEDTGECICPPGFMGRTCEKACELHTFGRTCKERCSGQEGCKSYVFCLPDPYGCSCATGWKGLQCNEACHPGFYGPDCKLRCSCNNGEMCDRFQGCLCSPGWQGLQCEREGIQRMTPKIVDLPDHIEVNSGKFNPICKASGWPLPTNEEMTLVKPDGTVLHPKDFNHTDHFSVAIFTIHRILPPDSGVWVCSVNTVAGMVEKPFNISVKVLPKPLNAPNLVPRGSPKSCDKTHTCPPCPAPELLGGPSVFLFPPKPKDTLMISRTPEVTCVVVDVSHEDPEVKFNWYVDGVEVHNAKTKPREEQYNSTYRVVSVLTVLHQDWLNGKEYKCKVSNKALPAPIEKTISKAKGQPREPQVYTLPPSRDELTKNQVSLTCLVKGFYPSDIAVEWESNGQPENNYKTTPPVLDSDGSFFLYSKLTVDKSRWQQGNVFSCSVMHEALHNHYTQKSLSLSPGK
Description: as §1

[4] = molecular target: T4, Human Tie2 (1-452)g3-Fc (human, UniProt Q02763 23-452)
T4 construct: range 1-452
Description: as §1

[5] = molecular target: T5, Human Tie2 (1-452)r5-Fc (human, UniProt Q02763 23-452)
T5 construct: range 1-452
Description: as §1

[6] = molecular target: T6, Human Tie2 (1-452)r4-Fc (human, UniProt Q02763 23-452)
T6 construct: range 1-452
Description: as §1

[7] = molecular target: T7, Human Tie2 (1-452)r3-Fc (human, UniProt Q02763 23-452)
T7 construct: range 1-452
Description: as §1

[8] = molecular target: T8, Human Tie2 (1-452)m3-Fc (human, UniProt Q02763 23-452)
T8 construct: range 1-452
T8 sequence (Q02763 other isoform, or with tags, fused parts or gaps limits assumed, form in doubt): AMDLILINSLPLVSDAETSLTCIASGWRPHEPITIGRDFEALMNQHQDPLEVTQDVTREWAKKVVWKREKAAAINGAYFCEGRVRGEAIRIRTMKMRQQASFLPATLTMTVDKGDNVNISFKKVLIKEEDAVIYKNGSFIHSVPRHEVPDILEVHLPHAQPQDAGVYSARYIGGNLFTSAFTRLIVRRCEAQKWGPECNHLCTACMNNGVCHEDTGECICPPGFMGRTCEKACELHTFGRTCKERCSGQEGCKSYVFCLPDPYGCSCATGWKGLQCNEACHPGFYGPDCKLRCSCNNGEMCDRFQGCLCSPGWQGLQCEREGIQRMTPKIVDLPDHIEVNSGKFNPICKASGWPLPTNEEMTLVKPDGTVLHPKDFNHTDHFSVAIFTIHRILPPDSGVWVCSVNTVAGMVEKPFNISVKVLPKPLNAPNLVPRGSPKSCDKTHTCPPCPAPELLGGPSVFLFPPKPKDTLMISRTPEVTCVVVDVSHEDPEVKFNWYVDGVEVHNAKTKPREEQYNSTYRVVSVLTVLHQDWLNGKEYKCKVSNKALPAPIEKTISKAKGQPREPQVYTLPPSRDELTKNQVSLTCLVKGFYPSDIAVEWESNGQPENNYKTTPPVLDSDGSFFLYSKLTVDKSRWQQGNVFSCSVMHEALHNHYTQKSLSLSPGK
Description: as §1

[9] = molecular target: T9, Human Tie2 (1-452)r7-Fc (human, UniProt Q02763 23-452)
T9 construct: range 1-452
Description: as §1

[10] = molecular target: T10, Human Tie2 (1-452)A4-Fc (human, UniProt Q02763 23-452)
T10 construct: range 1-452
T10 sequence (Q02763 other isoform, or with tags, fused parts or gaps limits assumed, form in doubt): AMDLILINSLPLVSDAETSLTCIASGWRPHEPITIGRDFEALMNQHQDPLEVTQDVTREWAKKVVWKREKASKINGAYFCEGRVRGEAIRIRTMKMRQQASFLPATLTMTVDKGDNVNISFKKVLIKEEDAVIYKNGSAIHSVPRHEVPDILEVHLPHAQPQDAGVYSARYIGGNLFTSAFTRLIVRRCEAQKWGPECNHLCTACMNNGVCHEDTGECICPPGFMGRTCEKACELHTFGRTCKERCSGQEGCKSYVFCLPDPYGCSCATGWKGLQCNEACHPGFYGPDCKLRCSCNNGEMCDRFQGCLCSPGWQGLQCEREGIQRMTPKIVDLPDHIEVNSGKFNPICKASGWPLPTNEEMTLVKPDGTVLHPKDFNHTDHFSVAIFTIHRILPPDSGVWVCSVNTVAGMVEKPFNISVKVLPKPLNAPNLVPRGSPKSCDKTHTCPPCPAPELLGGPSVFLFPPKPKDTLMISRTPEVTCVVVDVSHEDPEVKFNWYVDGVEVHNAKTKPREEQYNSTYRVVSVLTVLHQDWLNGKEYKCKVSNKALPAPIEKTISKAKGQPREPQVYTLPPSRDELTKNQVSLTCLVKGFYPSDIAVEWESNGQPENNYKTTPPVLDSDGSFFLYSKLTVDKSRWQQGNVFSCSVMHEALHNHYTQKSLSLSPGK
Description: as §1

[11] = molecular target: T11, Human Tie2 (1-452)A6-Fc (human, UniProt Q02763 23-452)
T11 construct: range 1-452
Description: as §1

[12] = molecular target: T12, Human Tie2 (1-452)A3-Fc (human, UniProt Q02763 23-452)
T12 construct: range 1-452
Description: as §1

[13] = molecular target: T13, human Tie2 (1-452)-Fc chimeric protein (human, UniProt Q02763 23-452)
T13 construct: range 1-452; The stated range 1-452 begins at residue 1 of the precursor
Description: as §1

[14] = molecular target: T14, Human Tie2 (1-452)A2-Fc (human, UniProt Q02763 23-452)
T14 construct: range 1-452
T14 sequence (Q02763 other isoform, or with tags, fused parts or gaps limits assumed, form in doubt): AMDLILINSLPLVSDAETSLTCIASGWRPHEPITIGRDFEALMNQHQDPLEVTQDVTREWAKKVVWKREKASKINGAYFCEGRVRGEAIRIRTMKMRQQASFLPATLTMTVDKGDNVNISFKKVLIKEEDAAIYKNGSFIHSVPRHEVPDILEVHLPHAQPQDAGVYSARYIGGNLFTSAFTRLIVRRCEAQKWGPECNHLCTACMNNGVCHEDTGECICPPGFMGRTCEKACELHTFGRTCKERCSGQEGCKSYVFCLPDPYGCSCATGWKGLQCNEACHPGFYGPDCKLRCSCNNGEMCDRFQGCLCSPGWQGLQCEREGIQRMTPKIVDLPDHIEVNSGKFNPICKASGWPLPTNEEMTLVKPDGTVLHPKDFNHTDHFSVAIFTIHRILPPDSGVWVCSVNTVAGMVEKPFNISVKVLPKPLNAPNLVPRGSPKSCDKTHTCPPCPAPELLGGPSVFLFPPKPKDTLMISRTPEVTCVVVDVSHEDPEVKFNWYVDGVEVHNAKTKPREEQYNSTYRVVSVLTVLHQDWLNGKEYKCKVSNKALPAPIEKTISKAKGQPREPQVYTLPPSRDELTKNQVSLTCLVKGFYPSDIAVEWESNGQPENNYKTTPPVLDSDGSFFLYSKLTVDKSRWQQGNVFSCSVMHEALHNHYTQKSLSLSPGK
Description: as §1

[15] = molecular target: T15, Human Tie2 (1-452)A1-Fc (human, UniProt Q02763 23-452)
T15 construct: range 1-452
T15 sequence (Q02763 other isoform, or with tags, fused parts or gaps limits assumed, form in doubt): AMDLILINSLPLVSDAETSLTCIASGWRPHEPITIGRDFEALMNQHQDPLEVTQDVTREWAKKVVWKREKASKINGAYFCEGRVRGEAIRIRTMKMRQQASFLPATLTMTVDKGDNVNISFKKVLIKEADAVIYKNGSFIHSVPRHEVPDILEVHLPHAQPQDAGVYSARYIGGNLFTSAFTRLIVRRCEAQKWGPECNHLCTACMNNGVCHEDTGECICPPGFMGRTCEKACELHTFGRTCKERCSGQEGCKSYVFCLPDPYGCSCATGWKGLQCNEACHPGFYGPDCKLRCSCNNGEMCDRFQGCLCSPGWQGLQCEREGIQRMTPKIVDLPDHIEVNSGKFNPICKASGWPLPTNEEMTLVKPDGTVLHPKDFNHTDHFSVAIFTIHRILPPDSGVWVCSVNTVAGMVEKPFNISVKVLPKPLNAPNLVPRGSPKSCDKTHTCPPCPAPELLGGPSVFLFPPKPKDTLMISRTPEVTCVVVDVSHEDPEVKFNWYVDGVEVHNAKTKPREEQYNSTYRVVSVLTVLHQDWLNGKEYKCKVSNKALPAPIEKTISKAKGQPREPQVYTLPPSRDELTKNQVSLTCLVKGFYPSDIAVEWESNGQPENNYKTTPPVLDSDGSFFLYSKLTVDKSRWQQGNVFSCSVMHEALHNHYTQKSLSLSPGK
Description: as §1

[16] = molecular target: T16, Human Tie2 (1-452)A5-Fc (human, UniProt Q02763 23-452)
T16 construct: range 1-452
Description: as §1

B1: TIE-1-Igγ1-LALA (antibody, human IgG1, kappa, L234A L235A)
heavy: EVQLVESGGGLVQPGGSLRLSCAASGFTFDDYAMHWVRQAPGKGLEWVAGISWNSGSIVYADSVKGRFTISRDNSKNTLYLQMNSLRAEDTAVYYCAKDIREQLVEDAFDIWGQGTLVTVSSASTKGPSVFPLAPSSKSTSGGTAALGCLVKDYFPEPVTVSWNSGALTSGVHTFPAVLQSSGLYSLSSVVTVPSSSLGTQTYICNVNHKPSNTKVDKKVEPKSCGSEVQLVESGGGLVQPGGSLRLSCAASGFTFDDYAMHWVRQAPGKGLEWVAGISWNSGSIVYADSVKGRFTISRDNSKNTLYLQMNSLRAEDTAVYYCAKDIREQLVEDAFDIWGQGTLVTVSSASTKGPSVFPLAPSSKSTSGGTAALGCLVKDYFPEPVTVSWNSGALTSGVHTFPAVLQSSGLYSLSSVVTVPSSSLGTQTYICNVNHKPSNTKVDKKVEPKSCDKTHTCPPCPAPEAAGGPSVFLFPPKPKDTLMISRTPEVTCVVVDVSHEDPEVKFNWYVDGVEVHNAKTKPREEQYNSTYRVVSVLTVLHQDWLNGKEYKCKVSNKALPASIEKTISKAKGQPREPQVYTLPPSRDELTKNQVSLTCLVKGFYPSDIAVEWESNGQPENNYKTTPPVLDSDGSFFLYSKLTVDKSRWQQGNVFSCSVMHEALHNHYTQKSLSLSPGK
light: DIQMTQSPSSLSASVGDRVTITCRSSQSLLHSHRYNYLDWYQQKPGKAPKLLIYLGSNRASGVPSRFSGSGSGTDFTLTISSVQPEDFATYYCMQTLQTPLTFGQGTKVEIKRTVAAPSVFIFPPSDEQLKSGTASVVCLLNNFYPREAKVQWKVDNALQSGNSQESVTEQDSKDSTYSLSSTLTLSKADYEKHKVYACEVTHQGLSSPVTKSFNRGEC
notes: Tandem tetravalent format: two heavy chains (VH-CH1-linker-VH-CH1-CH2-CH3) and four light chains; also called tetravalent anti-human Tie2 antibody with L234A, L235A and P331S
Relative value (%) of luminescent intensity [1]: 104%
Relative value (%) of luminescent intensity [2]: 109%
Relative value (%) of luminescent intensity [3]: 104%
Relative value (%) of luminescent intensity [4]: 96%
Relative value (%) of luminescent intensity [5]: 102%
Relative value (%) of luminescent intensity [6]: 101%
Relative value (%) of luminescent intensity [7]: 102%
Relative value (%) of luminescent intensity [8]: 103%
Relative value (%) of luminescent intensity [9]: 100%
Relative value (%) of luminescent intensity [10]: 100%
Relative value (%) of luminescent intensity [11]: 99%
Relative value (%) of luminescent intensity [12]: 98%
Relative value (%) of luminescent intensity [13]: 98%
Relative value (%) of luminescent intensity [14]: 95%
Relative value (%) of luminescent intensity [15]: 90%
Relative value (%) of luminescent intensity [16]: 98%

Source: patent US20160222130A1 (Astellas, published 2016)
